Measurements: the supplement of paper PMC9112550, “Optimization of the antimicrobial peptide Bac7 by deep mutational scanning” (BMC Biology, 2022)

Tested on: Escherichia coli TOP10
Assay: shrunken log2 fold change of peptide-encoding DNA abundance (4.5 h post-induction vs induction); higher = less antimicrobial activity (less host growth inhibition)
Conditions: time post-induction: 4.5 h; library: site-saturation at positions 5, 18, 19, 20
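Further: peptides expressed intracellularly from a pBAD plasmid library in pooled LB shake-flask culture, induced with 0.3% L-arabinose, DNA abundance read by NGS, three biological replicates, DESeq2 with apeglm shrinkage.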

Sequence | shrunken log2 fold change
RRIRCRPPRLPRPRPRPTMYPRP | -0.541
RRIRKRPPRLPRPRPRPTLHPRP | 0.359
RRIRMRPPRLPRPRPRPQYFPRP | 0.00454
RRIRGRPPRLPRPRPRPQTHPRP | 1.41
RRIRLRPPRLPRPRPRPTFEPRP | -0.336
RRIRPRPPRLPRPRPRPNEAPRP | -0.151
RRIRRRPPRLPRPRPRPYHCPRP | -0.37
RRIRARPPRLPRPRPRPTCMPRP | 0.407
RRIRPRPPRLPRPRPRPCPCPRP | -0.481
RRIRTRPPRLPRPRPRPAAMPRP | 0.154
RRIRARPPRLPRPRPRPHFWPRP | 0.23
RRIRGRPPRLPRPRPRPAEWPRP | 0.542
RRIRSRPPRLPRPRPRPNKRPRP | -0.174
RRIRERPPRLPRPRPRPTFAPRP | -0.0119
RRIRHRPPRLPRPRPRPKWVPRP | -0.302
RRIRIRPPRLPRPRPRPLHGPRP | -0.308
RRIRMRPPRLPRPRPRPCKGPRP | -0.0617
RRIRWRPPRLPRPRPRPCSMPRP | -0.565
RRIRKRPPRLPRPRPRPFNSPRP | -0.0903
RRIRMRPPRLPRPRPRPGHCPRP | -0.0518
RRIRMRPPRLPRPRPRPHVAPRP | 0.00497
RRIRQRPPRLPRPRPRPRDQPRP | -0.0332
RRIRSRPPRLPRPRPRPCCRPRP | -0.0822
RRIRTRPPRLPRPRPRPVFEPRP | -0.289
RRIRKRPPRLPRPRPRPRHHPRP | 0.476

Sequence | shrunken log2 fold change
RRIRMRPPRLPRPRPRPFLVPRP | -0.0501
RRIRFRPPRLPRPRPRPVWRPRP | 0.441
RRIRDRPPRLPRPRPRPERHPRP | 1.06
RRIRPRPPRLPRPRPRPLSRPRP | 0.0978
RRIRKRPPRLPRPRPRPEKYPRP | -0.0153
RRIRMRPPRLPRPRPRPVDMPRP | 0.185
RRIRCRPPRLPRPRPRPRSLPRP | 0.197
RRIRARPPRLPRPRPRPTPIPRP | 0.747
RRIRRRPPRLPRPRPRPYREPRP | -0.344
RRIRIRPPRLPRPRPRPPHCPRP | -0.391
RRIRKRPPRLPRPRPRPNVQPRP | 0.179
RRIRARPPRLPRPRPRPEERPRP | 1.11
RRIRQRPPRLPRPRPRPKGAPRP | 0.0159
RRIRHRPPRLPRPRPRPQNTPRP | -0.871
RRIRGRPPRLPRPRPRPQQLPRP | 0.487
RRIRDRPPRLPRPRPRPIPTPRP | 0.00396
RRIRPRPPRLPRPRPRPYWFPRP | -0.579
RRIRRRPPRLPRPRPRPKPYPRP | -0.033
RRIRMRPPRLPRPRPRPYWTPRP | -0.354
RRIRHRPPRLPRPRPRPYCFPRP | -0.792
RRIRLRPPRLPRPRPRPDSQPRP | -0.117
RRIRNRPPRLPRPRPRPPRGPRP | 1.3
RRIRPRPPRLPRPRPRPHREPRP | -0.176
RRIRTRPPRLPRPRPRPENFPRP | -0.0131
RRIRCRPPRLPRPRPRPHIGPRP | 0.000633

Sequence | shrunken log2 fold change
RRIRCRPPRLPRPRPRPCEHPRP | -0.328
RRIRRRPPRLPRPRPRPCKYPRP | -0.915
RRIRARPPRLPRPRPRPLSIPRP | -0.308
RRIRCRPPRLPRPRPRPEFNPRP | -0.0266
RRIRHRPPRLPRPRPRPKPTPRP | 0.0736
RRIRDRPPRLPRPRPRPEENPRP | 1.11
RRIRKRPPRLPRPRPRPEYWPRP | -0.0125
RRIRFRPPRLPRPRPRPLPEPRP | 0.224
RRIRPRPPRLPRPRPRPRYWPRP | 0.0515
RRIRYRPPRLPRPRPRPLNRPRP | -1.92
RRIRVRPPRLPRPRPRPGFGPRP | 0.408
RRIRNRPPRLPRPRPRPPYVPRP | -0.0374
RRIRRRPPRLPRPRPRPPAYPRP | 0.618
RRIRKRPPRLPRPRPRPGTQPRP | 0.114
RRIRNRPPRLPRPRPRPGLYPRP | -0.581
RRIRQRPPRLPRPRPRPSCIPRP | -0.238
RRIRPRPPRLPRPRPRPYYEPRP | -0.321
RRIRARPPRLPRPRPRPVHLPRP | 0.215
RRIRPRPPRLPRPRPRPNHVPRP | -0.532
RRIRPRPPRLPRPRPRPIPRPRP | 0.449
RRIRSRPPRLPRPRPRPLWIPRP | -0.497
RRIRSRPPRLPRPRPRPLEEPRP | 0.411
RRIRLRPPRLPRPRPRPFLMPRP | -0.551
RRIRQRPPRLPRPRPRPVCSPRP | -0.21
RRIRWRPPRLPRPRPRPKTRPRP | 0.654

Sequence | shrunken log2 fold change
RRIRLRPPRLPRPRPRPCWFPRP | -0.21
RRIRARPPRLPRPRPRPKERPRP | 0.415
RRIRFRPPRLPRPRPRPMHMPRP | -0.011
RRIRVRPPRLPRPRPRPDYRPRP | -0.00433
RRIRPRPPRLPRPRPRPRTCPRP | 0.322
RRIRFRPPRLPRPRPRPGGIPRP | -0.0183
RRIRLRPPRLPRPRPRPLLEPRP | -0.0263
RRIRPRPPRLPRPRPRPIQCPRP | 0.0062
RRIRDRPPRLPRPRPRPNYMPRP | -0.216
RRIRERPPRLPRPRPRPFMKPRP | -0.0971
RRIRTRPPRLPRPRPRPLRDPRP | 0.282
RRIRIRPPRLPRPRPRPHESPRP | 0.0539
RRIRFRPPRLPRPRPRPNCAPRP | 0.154
RRIRRRPPRLPRPRPRPSKQPRP | -0.118
RRIRCRPPRLPRPRPRPNDIPRP | -0.762
RRIRDRPPRLPRPRPRPVVCPRP | 0.26
RRIRQRPPRLPRPRPRPIKPPRP | 0.0492
RRIRGRPPRLPRPRPRPWWWPRP | 0.152
RRIRFRPPRLPRPRPRPFQDPRP | 0.0171
RRIRKRPPRLPRPRPRPMIWPRP | -0.00177
RRIRSRPPRLPRPRPRPMHMPRP | -0.13
RRIRWRPPRLPRPRPRPTMIPRP | -0.0926
RRIRPRPPRLPRPRPRPYHSPRP | -0.659
RRIRWRPPRLPRPRPRPQERPRP | -0.0207
RRIRYRPPRLPRPRPRPDGEPRP | -0.159

Sequence | shrunken log2 fold change
RRIRTRPPRLPRPRPRPDTQPRP | 0.0514
RRIRSRPPRLPRPRPRPTGGPRP | 0.259
RRIRTRPPRLPRPRPRPMWIPRP | -0.222
RRIRGRPPRLPRPRPRPLEPPRP | 0.231
RRIRCRPPRLPRPRPRPPEWPRP | 0.575
RRIRLRPPRLPRPRPRPLKWPRP | -0.369
RRIRYRPPRLPRPRPRPNVEPRP | -0.155
RRIRFRPPRLPRPRPRPCKYPRP | -0.373
RRIRERPPRLPRPRPRPREAPRP | 0.419
RRIRQRPPRLPRPRPRPDPVPRP | 0.0565
RRIRTRPPRLPRPRPRPMTCPRP | -0.0817
RRIRHRPPRLPRPRPRPYQSPRP | 0.0306
RRIRTRPPRLPRPRPRPQAEPRP | -0.00758
RRIRPRPPRLPRPRPRPVRFPRP | 0.28
RRIRHRPPRLPRPRPRPWPDPRP | -0.0062
RRIRERPPRLPRPRPRPWFKPRP | -0.0858
RRIRCRPPRLPRPRPRPQRKPRP | 0.203
RRIRGRPPRLPRPRPRPTCVPRP | 1.04
RRIRPRPPRLPRPRPRPWMGPRP | -0.114
RRIRFRPPRLPRPRPRPQTGPRP | -0.152
RRIRARPPRLPRPRPRPDYCPRP | -0.17
RRIRTRPPRLPRPRPRPTSAPRP | 0.587
RRIRRRPPRLPRPRPRPWGQPRP | 0.0104
RRIRVRPPRLPRPRPRPQPNPRP | -0.125
RRIRHRPPRLPRPRPRPHSKPRP | -0.32
